Assay results taken from article PMC6059731 (Science Advances, 2018).
Ends that are not written are not given here.

Molecular target: the molecule itself
Assay: SEC-SAXS

For GIGDPVTCLKSGAICHPVFCPRRYKQIGTCGLPGTKCCKKP (natural protein, UniProt O15263 24-64, looked up, ends and bridges not checked; cysteine pairing not given here) [Human β-defensin 2 (HBD-2)], which “monomer/dimer ratio (dimer part of 70:30)” value is on record?
Its value is 30.
